Values belong to the molecule of their own block, whether it stands above or below them.
How the values were obtained:
[1] = biological target: T1, ChErb1 432-801 (C-terminal seven-bladed beta-propeller) (Chaetomium thermophilum var. thermophilum) (UniProt G0SCK6); assay: fluorescence titration (intrinsic Trp); conditions: apparent KD; emission at 315 nm; 1.5 uM protein; Fluorescence: 20 mM Hepes pH 7.5, 150 mM NaCl, 5% glycerol, 2 mM beta-mercaptoethanol, 25 C; bead pull-down: 50 mM Tris pH 8, 100 mM NaCl, 5 mM MgCl2, 3 mM …
T1 sequence: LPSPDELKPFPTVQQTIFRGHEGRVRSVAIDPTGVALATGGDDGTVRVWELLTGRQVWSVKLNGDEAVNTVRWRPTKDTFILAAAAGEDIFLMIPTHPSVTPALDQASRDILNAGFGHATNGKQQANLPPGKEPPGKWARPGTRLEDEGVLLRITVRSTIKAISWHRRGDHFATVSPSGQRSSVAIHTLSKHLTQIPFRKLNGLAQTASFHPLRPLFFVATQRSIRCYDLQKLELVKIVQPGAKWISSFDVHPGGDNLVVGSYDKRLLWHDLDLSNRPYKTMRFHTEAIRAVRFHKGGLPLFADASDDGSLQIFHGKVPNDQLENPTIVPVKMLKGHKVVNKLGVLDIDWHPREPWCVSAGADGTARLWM

[2] = biological target: T2, ChErb1 432-801 (C-terminal seven-bladed beta-propeller) (Chaetomium thermophilum var. …, UniProt G0SCK6 432-801); assay: BLI; Fluorescence: 20 mM Hepes pH 7.5, 150 mM NaCl, 5% glycerol, 2 mM beta-mercaptoethanol, 25 C; bead pull-down: 50 mM Tris pH 8, 100 mM NaCl, 5 mM MgCl2, 3 mM DTT, 0.1% Triton X-100, 0.1 mg/ml BSA, room temperature; BLI conditions not in material; conditions: protein: recombinant; tags: N-terminal 6xHis with 3C site (pET28-NKI/LIC 6His/3C); single strand
T2 sequence: T1 sequence

[3] = biological target: T3, Erb1 (Eukaryotic Ribosome Biogenesis 1) from Saccharomyces cerevisiae (Saccharomyces cerevisiae, UniProt Q04660 1-807); assay: SEC; purified Nop7 and Erb1 mixed in equimolar amounts, Superdex200 16/60 in SE buffer (20mM Hepes pH 7.5; 0.25M NaCl; 2 mM β-mercaptoethanol, 5% glycerol); fractions of the heterodimer collected; conditions: both partners purified
T3 construct: Erb1, Saccharomyces cerevisiae, cloned from genomic DNA; 807 residues; Vector pET28-NKI/LIC 6His/3C: N-terminal 6xHis tag followed by a 3C protease site; no cleavage of the tag is told; also called 6xHis-Erb1; source: E. coli BL21 Codon Plus, purified (IMAC, size exclusion chromatography)
T3 sequence (looked up): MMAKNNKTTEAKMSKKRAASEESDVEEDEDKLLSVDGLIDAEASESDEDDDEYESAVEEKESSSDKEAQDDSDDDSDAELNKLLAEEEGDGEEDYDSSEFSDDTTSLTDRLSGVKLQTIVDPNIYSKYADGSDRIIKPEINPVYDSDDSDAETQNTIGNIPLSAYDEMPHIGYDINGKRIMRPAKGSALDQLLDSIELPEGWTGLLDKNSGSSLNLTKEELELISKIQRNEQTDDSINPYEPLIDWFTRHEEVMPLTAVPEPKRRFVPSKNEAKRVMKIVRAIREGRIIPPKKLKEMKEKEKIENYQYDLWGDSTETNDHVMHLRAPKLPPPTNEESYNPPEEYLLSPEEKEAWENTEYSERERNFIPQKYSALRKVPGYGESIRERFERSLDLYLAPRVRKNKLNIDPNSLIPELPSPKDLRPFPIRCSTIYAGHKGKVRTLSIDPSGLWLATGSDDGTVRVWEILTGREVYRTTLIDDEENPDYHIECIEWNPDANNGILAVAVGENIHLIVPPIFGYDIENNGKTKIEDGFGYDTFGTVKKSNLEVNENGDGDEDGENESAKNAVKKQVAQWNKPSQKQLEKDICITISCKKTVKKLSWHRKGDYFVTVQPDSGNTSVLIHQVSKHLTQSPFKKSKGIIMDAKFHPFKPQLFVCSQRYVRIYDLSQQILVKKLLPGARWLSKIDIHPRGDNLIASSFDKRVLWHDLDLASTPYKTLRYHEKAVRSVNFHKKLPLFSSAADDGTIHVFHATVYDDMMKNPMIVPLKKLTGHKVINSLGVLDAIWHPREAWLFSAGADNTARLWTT

Molecule: free poly(U)
- Kd [1]: 3000 nM

B1: biotinylated poly(U) 15-mer (ssRNA)
RNA: UUUUUUUUUUUUUUU
- Kd [2]: 170 nM

- binding result [3]: binds
B2: Nop7 from Saccharomyces cerevisiae (natural protein, UniProt P53261 1-605, looked up)
chain: MRIKKKNTRGNARNFITRSQAVRKLQVSLADFRRLCIFKGIYPREPRNKKKANKGSTAPTTFYYAKDIQYLMHEPVLAKFREHKTFARKLTRALGRGEVSSAKRLEENRDSYTLDHIIKERYPSFPDAIRDIDDALNMLFLFSNLPSTNQVSSKIINDAQKICNQWLAYVAKERLVRKVFVSIKGVYYQANIKGEEVRWLVPFKFPENIPSDVDFRIMLTFLEFYSTLLHFVLYKLYTDSGLIYPPKLDLKKDKIISGLSSYILESRQEDSLLKLDPTEIEEDVKVESLDASTLKSALNADEANTDETEKEEEQEKKQEKEQEKEQNEETELDTFEDNNKNKGDILIQPSKYDSPVASLFSAFVFYVSREVPIDILEFLILSCGGNVISEAAMDQIENKKDIDMSKVTHQIVDRPVLKNKVAGRTYIQPQWIFDCINKGELVPANKYLPGEALPPHLSPWGDAIGYDPTAPVEEGEEEESESESESEDQVEEEDQEVVAGEEDDDDDEELQAQKELELEAQGIKYSETSEADKDVNKSKNKKRKVDEEEEEKKLKMIMMSNKQKKLYKKMKYSNAKKEEQAENLKKKKKQIAKQKAKLNKLDSKK
notes: Nop7, Saccharomyces cerevisiae, cloned from genomic DNA; called full length Nop7 in the results; Vector pNIC28-Bsa4: N-terminal 6xHis tag followed by a TEV site; no cleavage of the tag is told; also called 6xHis-Nop7; source: E. coli BL21 Codon Plus, purified (IMAC, size exclusion chromatography)
